Results: patent US20210292396A1
Substitutions are numbered along the chain they refer to.

Columns and labels:
Assay in all cases: cell-based or functional assay
[1] = target: HIV Env of isolate 3817.v2.c59 (HIV)
[2] = target: HIV Env of isolate CNE30 (HIV)
[3] = target: HIV Env of isolate CNE58 (HIV)
[4] = target: HIV Env of isolate TV1.29 (HIV)
[5] = target: HIV Env of isolate 6644.v2.c33 (HIV)
[6] = target: Env of HIV isolate X2278.C2.B6 (clade B) (HIV)
[7] = target: Env of HIV isolate BJOX028000.10.3 (clade AE) (HIV)
[8] = target: Env of HIV isolate T255-34 (clade AG) (HIV)
[9] = target: Env of HIV isolate Q23.17 (clade A) (HIV)
[10] = target: HIV Env of isolate 0077.v1.c16 (HIV)
[11] = target: Env of HIV isolate BI369.9A (clade A) (HIV)
[12] = target: Env of HIV isolate R1166.C1 (clade AE) (HIV)
[13] = target: Env of HIV isolate 271-11 (clade AG) (HIV)
[14] = target: Env of HIV isolate 7165.18 (clade B) (HIV)
[15] = target: Env of HIV isolate 16936-2.21 (clade C) (HIV)
[16] = target: HIV Env of isolate UG021.16 (HIV)
[17] = target: Env of HIV isolate DU156.12 (clade C) (HIV)
[18] = target: HIV Env of isolate CH117.4 (HIV)
[19] = target: Env of HIV isolate C3347.c11 (clade AE) (HIV)
[20] = target: HIV Env of isolate NKU3006.ec1 (HIV)
[21] = target: HIV Env of isolate X2088.c9 (HIV)
[22] = target: Env of HIV isolate X1254.c3 (clade G) (HIV)
[23] = target: HIV Env of isolate CNE31 (HIV)
[24] = target: Env of HIV isolate 0921.v2.c14 (clade C) (HIV)
[25] = target: Env of HIV isolate C2101.c1 (clade AE) (HIV)
[26] = target: Env of HIV isolate 3817.v2.c59 (clade CD) (HIV)
[27] = target: Env of HIV isolate 0815.v3.c3 (clade ACD) (HIV)
[28] = target: Env of HIV isolate X2131.C1.B5 (clade G) (HIV)
[29] = target: Env of HIV isolate 235-47 (clade AG) (HIV)
[30] = target: HIV Env of isolate 16936-2.21 (HIV)
[31] = target: 208-member cross-clade virus panel
[32] = target: HIV Env of isolate CNE40 (HIV)
[33] = target: Env of HIV isolate 6785.v5.c14 (clade C) (HIV)
[34] = target: Env of HIV isolate 3337.v2.c6 (clade CD) (HIV)
[35] = target: Env of HIV isolate 3326.v4.c3 (clade CD) (HIV)
[36] = target: Env of HIV isolate CAP256.206.C9 (clade C) (HIV)
[37] = target: Env of HIV isolate 288.38 (clade C) (HIV)
[38] = target: Env of HIV isolate 6471.v1.c16 (clade C) (HIV)
[39] = target: Env of HIV isolate 269-12 (clade AG) (HIV)
[40] = target: HIV Env of isolate DU172.17 (HIV)
[41] = target: Env of HIV isolate SC422.8 (clade B) (HIV)
[42] = target: Env of HIV isolate SF162.LS (clade B) (HIV)
[43] = target: Env of HIV isolate 96ZM651.02 (clade C) (HIV)

B1: ePGT121.15.H2.L1 (antibody, V domains shown)
VH: QMQLQESGPGLVKPGETLSLTCSVSGASISSSYWSWLRETPGKGLEWIGYTHHSGDTNYAPSLKSRVHLGLHPSKNQVSLSLTSVTAADTAVYYCARTLHGRRIYGVVAFNEWFTYFYWEVWGKGTQVTVSS
VL: SDISVAPGETVRISCGGESIGSRAVQWYQHRAGQAPKLIIYNNQDRPPGIPERFSGSPDIDFGTTATLTITNVEAGDEATYYCHIWDSRRPTNWVFGGGTTLTVL
[1]
  neutralization (Table 6 value): 0.00328
[2]
  neutralization (Table 6 value): 0.00312
[3]
  neutralization (Table 6 value): 0.00464

B2: ePGT121.18.17 (ePGT121.18.H17 VH and ePGT121.17.L1 VL) (antibody, V domains shown)
VH: B1 VH with H68T, L69I, H72D, W113Y, F114Y, E120P, V121T
VL: B1 VL with S14T, A32P, K37R, T71S, V95E, F96L, G98P
[4]
  IC80, pseudovirus neutralization: 0.031 µg/mL
[5]
  IC80, pseudovirus neutralization: 0.015 µg/mL
[6]
  IC50, pseudovirus neutralization: 0.003 µg/mL
[7]
  IC50, pseudovirus neutralization: 0.338 µg/mL
[1]
  IC80, pseudovirus neutralization: 17.9 µg/mL
[8]
  IC50, pseudovirus neutralization: 0.032 µg/mL
[9]
  IC50, pseudovirus neutralization: 0.006 µg/mL
[10]
  IC80, pseudovirus neutralization: > 50 µg/mL
[11]
  IC50, pseudovirus neutralization: 0.004 µg/mL
[12]
  IC50, pseudovirus neutralization: > 50 µg/mL
[13]
  IC50, pseudovirus neutralization: > 50 µg/mL
[2]
  IC80, pseudovirus neutralization: 0.047 µg/mL
[3]
  IC80, pseudovirus neutralization: 0.195 µg/mL
[14]
  IC50, pseudovirus neutralization: 0.006 µg/mL
[15]
  IC50, pseudovirus neutralization: 0.004 µg/mL
[16]
  IC80, pseudovirus neutralization: 0.078 µg/mL
[17]
  IC50, pseudovirus neutralization: 0.003 µg/mL
[18]
  IC80, pseudovirus neutralization: > 50 µg/mL
[19]
  IC50, pseudovirus neutralization: > 50 µg/mL
[20]
  IC80, pseudovirus neutralization: > 50 µg/mL
[21]
  IC80, pseudovirus neutralization: 0.017 µg/mL
[22]
  IC50, pseudovirus neutralization: 0.006 µg/mL
[23]
  IC80, pseudovirus neutralization: 0.25 µg/mL
[24]
  IC50, pseudovirus neutralization: 0.189 µg/mL
[25]
  IC50, pseudovirus neutralization: > 50 µg/mL
[26]
  IC50, pseudovirus neutralization: 4.75 µg/mL
[27]
  IC50, pseudovirus neutralization: 0.005 µg/mL
[28]
  IC50, pseudovirus neutralization: 0.002 µg/mL
[29]
  IC50, pseudovirus neutralization: 0.022 µg/mL
[30]
  IC80, pseudovirus neutralization: 0.011 µg/mL
[31]
  % vs Neutralized, IC50 < 0.01 ug/ml: 40%
  % vs Neutralized, IC50 < 0.1 ug/ml: 61%
  % vs Neutralized, IC50 < 1.0 ug/ml: 69%
  % vs Neutralized, IC50 < 10 ug/ml: 74%
  % vs Neutralized, IC50 < 50 ug/ml: 76%
  % vs Neutralized, IC80 < 0.01 ug/ml: 14.4%
  % vs Neutralized, IC80 < 0.1 ug/ml: 53.4%
  % vs Neutralized, IC80 < 1.0 ug/ml: 63.5%
  % vs Neutralized, IC80 < 10 ug/ml: 67.8%
  % vs Neutralized, IC80 < 50 ug/ml: 70.7%
  Geometric Mean (IC50): 0.0202 µg/mL
  Geometric Mean IC80: 0.0443 µg/mL
  Median IC50: 0.009 µg/mL
  Median IC80: 0.02 µg/mL
  Total VS Neutralized, IC50 < 0.01 ug/ml (viruses of 208): 83
  Total VS Neutralized, IC50 < 0.1 ug/ml (viruses of 208): 126
  Total VS Neutralized, IC50 < 1.0 ug/ml (viruses of 208): 143
  Total VS Neutralized, IC50 < 10 ug/ml (viruses of 208): 154
  Total VS Neutralized, IC50 < 50 ug/ml (viruses of 208): 158
  Total VS Neutralized, IC80 < 0.01 ug/ml (viruses of 208): 30
  Total VS Neutralized, IC80 < 0.1 ug/ml (viruses of 208): 111
  Total VS Neutralized, IC80 < 1.0 ug/ml (viruses of 208): 132
  Total VS Neutralized, IC80 < 10 ug/ml (viruses of 208): 141
  Total VS Neutralized, IC80 < 50 ug/ml (viruses of 208): 147
[32]
  IC80, pseudovirus neutralization: 0.13 µg/mL
[33]
  IC50, pseudovirus neutralization: 0.005 µg/mL
[34]
  IC50, pseudovirus neutralization: 0.363 µg/mL
[35]
  IC50, pseudovirus neutralization: 0.633 µg/mL
[36]
  IC50, pseudovirus neutralization: 0.004 µg/mL
[37]
  IC50, pseudovirus neutralization: 0.002 µg/mL
[38]
  IC50, pseudovirus neutralization: 1.09 µg/mL
[39]
  IC50, pseudovirus neutralization: 0.01 µg/mL
[40]
  IC80, pseudovirus neutralization: 0.018 µg/mL
[41]
  IC50, pseudovirus neutralization: 0.016 µg/mL
[42]
  IC50, pseudovirus neutralization: 0.003 µg/mL
[43]
  IC50, pseudovirus neutralization: 0.003 µg/mL
